Key:
human p107 (human) = human p107 (human) (UniProt P28749)
human RB protein (human) = human RB protein (human) (UniProt P06400)
Chain of UniProt P06400 (P06400 whole entry): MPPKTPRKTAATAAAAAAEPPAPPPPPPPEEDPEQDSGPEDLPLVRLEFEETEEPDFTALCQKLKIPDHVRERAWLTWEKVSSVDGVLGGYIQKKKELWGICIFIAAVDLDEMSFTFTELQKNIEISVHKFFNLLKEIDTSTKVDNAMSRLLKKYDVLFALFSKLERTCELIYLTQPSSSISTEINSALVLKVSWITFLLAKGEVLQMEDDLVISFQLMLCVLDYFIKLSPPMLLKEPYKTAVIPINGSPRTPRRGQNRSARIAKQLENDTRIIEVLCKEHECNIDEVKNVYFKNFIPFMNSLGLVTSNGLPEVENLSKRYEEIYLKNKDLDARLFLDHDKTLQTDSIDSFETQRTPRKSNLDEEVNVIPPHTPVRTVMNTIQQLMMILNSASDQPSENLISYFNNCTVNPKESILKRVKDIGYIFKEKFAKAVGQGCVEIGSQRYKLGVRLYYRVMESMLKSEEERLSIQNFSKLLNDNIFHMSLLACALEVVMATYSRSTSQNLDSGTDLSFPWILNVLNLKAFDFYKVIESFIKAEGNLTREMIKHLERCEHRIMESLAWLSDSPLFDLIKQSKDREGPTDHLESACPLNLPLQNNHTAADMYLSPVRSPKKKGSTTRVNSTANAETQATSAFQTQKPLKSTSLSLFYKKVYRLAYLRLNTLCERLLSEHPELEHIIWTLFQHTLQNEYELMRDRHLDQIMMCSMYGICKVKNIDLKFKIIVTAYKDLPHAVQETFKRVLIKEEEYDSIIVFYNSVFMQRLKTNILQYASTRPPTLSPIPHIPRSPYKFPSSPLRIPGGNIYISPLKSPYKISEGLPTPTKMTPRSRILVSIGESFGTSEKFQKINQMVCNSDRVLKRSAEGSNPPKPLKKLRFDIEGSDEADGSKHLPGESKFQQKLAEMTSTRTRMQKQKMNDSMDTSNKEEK

Chain of UniProt P28749 (P28749 whole entry): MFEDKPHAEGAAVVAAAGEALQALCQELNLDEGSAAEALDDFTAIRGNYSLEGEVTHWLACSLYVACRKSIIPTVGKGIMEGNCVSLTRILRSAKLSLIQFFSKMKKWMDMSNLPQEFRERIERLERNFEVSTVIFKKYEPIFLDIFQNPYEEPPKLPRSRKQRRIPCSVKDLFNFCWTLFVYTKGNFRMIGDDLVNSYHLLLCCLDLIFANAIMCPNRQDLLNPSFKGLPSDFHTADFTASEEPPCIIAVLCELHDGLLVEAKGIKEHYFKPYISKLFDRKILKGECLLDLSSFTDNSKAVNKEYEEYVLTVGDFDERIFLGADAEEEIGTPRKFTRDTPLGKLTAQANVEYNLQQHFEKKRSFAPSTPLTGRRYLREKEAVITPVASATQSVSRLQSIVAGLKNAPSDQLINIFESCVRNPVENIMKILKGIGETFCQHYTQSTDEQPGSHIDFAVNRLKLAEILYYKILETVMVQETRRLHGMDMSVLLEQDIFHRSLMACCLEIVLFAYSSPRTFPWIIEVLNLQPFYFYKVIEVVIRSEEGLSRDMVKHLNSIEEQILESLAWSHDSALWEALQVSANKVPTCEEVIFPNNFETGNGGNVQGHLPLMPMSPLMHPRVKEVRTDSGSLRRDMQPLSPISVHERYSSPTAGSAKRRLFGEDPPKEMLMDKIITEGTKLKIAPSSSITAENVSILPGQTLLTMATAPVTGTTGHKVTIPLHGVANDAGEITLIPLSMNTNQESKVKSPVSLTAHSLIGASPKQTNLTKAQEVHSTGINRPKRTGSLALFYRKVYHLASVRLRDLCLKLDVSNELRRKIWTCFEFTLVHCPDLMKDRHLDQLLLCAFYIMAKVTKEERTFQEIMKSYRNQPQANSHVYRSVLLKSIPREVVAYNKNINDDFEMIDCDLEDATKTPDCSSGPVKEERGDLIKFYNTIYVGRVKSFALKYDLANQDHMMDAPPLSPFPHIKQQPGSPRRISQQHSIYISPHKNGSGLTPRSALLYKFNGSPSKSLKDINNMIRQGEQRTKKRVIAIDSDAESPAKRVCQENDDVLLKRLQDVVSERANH

Substance | Observed signal compared to T, % (human p107 (human)) [%] | Observed signal compared to T, % (human RB protein (human)) [%]
wild-type SV40 large T antigen (from UniProt P03070 1-708) (other; other documents disagree on this pair) | 100 | 100
107-T mutant SV40 large T antigen (lysine for glutamic acid at codon 107) (from UniProt P03070 1-708) (other; other documents disagree on this pair) | 0 | 0.03

Reference: patent publication US20020031803A1
